In patent US20140234868A1, “USE FOR GLYCOLIPOPROTEIN GINTONIN, ISOLATED AND IDENTIFIED FROM GINSENG, AS A NATURAL MEDICAL-PLANT DERIVED LIGAND” (KONKUK UNIVERSITY INDUSTRIAL COOPERATION CORP., priority 2011, published 2014):

Tested on: rat hippocampal slices
Assay: Long-term potentiation (LTP) in rat hippocampal slices, theta burst stimulation
Settings: after TBS, n=4
Description: Since agintonin induces NMDA receptor activation as confirmed above, an examination was made of the effect of gintonin on LTP induction in rat hippocampal slices (Moon et al., Neursci. Lett. 466, 114-119, 2009; Lee et al., J Neurosci. Res. 89, 96-107, 2011). In this regard, LTP induction was studied after treatment with three different concentrations of gintonin (0.1, 1, and 10 μg/ml).
Male rats 3-5 weeks old (Sprague-Dawley strain) (Charls River, U.S.A.) were quickly sacrificed by cervical dislocation without using an anesthetic (Steidl et al., Brain Res. 1096, 70-84, 2006). With the aid of a rongeur (Fine Science Tools Inc., USA), the cranium was removed, and the brain was excised, immediately cooled in ice, and immersed in artificial cerebrospinal fluid (saCSF) containing oxygen-saturated (95% O2/5% CO2) sucrose (composition mM: Sucrose 248, NaHCO3 26, glucose 10, KCl 3, CaCl2 2, MgCl2 1, HEPES 10, pH7.4).
The hippocampus was sectioned into 400 μm slices using vibratome (MA752 motorised advance vibroslice; Campden inc.) and the hippocampal slices were stabilized in artificial cerebrospinal fluid (aCSF) (composition mM: […], NaHCO326, Glucose 10, KCl 3, CaCl2 2, MgCl2 1, HEPES 10, pH 7.4) for 1 hr (Lelong and Rebel, J Pharmacol Toxicol Methods. 39, 203-210, 1998).
OHSCs were incubated according to the Stoppini method (Stoppini et al., J Neurosci Methods 37, 173-182, 1991), and all procedures were conducted on a sterilized bench.
Immediately after excision from the cranium, the rat brain was immersed in an ice-cold HBSS-medium (LB 003-01, Sigma, St. Louis, Mo., USA), and the hippocampus was separated and sectioned at a thickness of 400 μm using a tissue chopper (Mickle Laboratory Engineering Co., Surrey, UK). The hippocampal slices were placed on a membrane insert (polytetrafluorethlene membranes, 0.4 μm Millicell-CM, Millipore Co., Bedford, Mass., USA), and immersed in a culture medium. […]

B1: gintonin: ginseng-derived glycolipoprotein; structural protein of ginseng major latex-like protein (MLP151) and ribonuclease-like storage proteins; crude gintonin used in tests (protein)
chain 1: MGLTGKLICQTGIKSDGDVFHELFGTRPHHVPNITPANIQGCDLHEGEFGKVGSVVIWNYSIDGNAMIAKEEIVAIDEEDKSVTFKVVEGHLFEEFKSIVFSVHVDTKGEDNLVTWSIDYEKLNESVKDPTSYLDFLLSVTRDIEAHHLPK
chain 2: RSDYPWAMFALRLQWPAGFCEVNNACDTKSLLNTFTIHGLYPYNAKGTPALYCDGTAFDVNSVSDFLAEMHLAWPSHETNTEDIQFWEHEWKKHGRCSEALLKQTDYFRTALAFRKAFDIVGLLNQEGIYPNNDLYRPKMIKEAIKKHLNAVPEIDFTKNENSEYVLTDINVCVNQQATRFVDCPTDDATDDYRLKFVRLPSKMKFADPRTNSII
- total field excitatory postsynaptic potentials (total fEPSPs) (gintonin 0.1 μg/ml): 180.90±7.53%
- total field excitatory postsynaptic potentials (total fEPSPs) (gintonin 1 μg/ml): 205.32±6.40%
- total field excitatory postsynaptic potentials (total fEPSPs) (gintonin 10 μg/ml): 214.14±11.55%
